The target of assay [1] is human epidermal growth factor receptor (EGFR) on cells and tissues (human) (UniProt P00533). Briefly: in vivo fluorescence imaging.
The target in assay [2] is human epidermal growth factor receptor (EGFR) (human) (UniProt P00533). Description: cell-based or functional assay.

The values that follow come from US20130266579A1.

In assay [1], control Human IgG (antibody) registered a fold increase of tumor DL755 signal over 7 days of 3 fold. Saporin conjugated Y104D gave an EC50 for Cell Growth Inhibition (CGI), Keratinocyte (HEK-N) cells in assay [2] of 0.0158 µg/mL. Regarding Saporin conjugated Y104D/Q111P, in assay [2], the EC50 for Cell Growth Inhibition (CGI), A431 cells amounted to 0.0024 µg/mL and the EC50 for Cell Growth Inhibition (CGI), Keratinocyte (HEK-N) cells was 0.0225 µg/mL.
